# According to article PMC8423306, “Coordinated action of multiple transporters in the acquisition of essential cationic amino acids by the intracellular parasite Toxoplasma gondii” (PLoS Pathogens, 2021):
# T1: TgApiAT6-1 (Toxoplasma gondii, UniProt A0A125YQS6)
# T1 construct: gene ApiAT6-1; HA-tagged TgApiAT6-1 open reading frame expressed in Xenopus laevis oocytes
# T1 sequence (A0A125YQS6 1-566): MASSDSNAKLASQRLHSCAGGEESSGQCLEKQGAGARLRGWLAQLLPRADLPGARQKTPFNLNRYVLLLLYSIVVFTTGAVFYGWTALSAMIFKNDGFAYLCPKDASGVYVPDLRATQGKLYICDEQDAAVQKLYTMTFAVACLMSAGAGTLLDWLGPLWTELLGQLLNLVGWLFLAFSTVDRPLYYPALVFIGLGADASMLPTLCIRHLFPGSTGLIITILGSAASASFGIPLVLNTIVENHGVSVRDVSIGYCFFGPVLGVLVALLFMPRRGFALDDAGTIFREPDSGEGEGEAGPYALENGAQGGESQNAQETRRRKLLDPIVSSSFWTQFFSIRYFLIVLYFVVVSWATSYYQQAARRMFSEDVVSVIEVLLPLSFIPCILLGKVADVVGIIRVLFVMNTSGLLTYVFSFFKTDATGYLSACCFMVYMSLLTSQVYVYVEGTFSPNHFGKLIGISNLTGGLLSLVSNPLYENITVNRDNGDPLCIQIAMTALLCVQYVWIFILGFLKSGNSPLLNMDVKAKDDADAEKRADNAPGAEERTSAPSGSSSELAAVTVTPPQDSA
# How the values were obtained:
# TgApiAT6-1 [1] = target: T1, TgApiAT6-1; experiment: radiolabelled uptake in Xenopus oocytes; inhibition of Arg uptake at […]; trans-stimulation; assay type: cell-based
# TgApiAT6-1 [2] = target: T1, TgApiAT6-1; experiment: inhibition of […]Arg uptake at […] and trans-stimulation of Arg uptake in Xenopus oocytes; assay type: cell-based
# TgApiAT6-1 [3] = target: T1, TgApiAT6-1; experiment: inhibition of […]Arg uptake at […] and trans-stimulation of Arg efflux in Xenopus oocytes; assay type: cell-based
# [4] = substrate: N=C(N)NCCC[C@H](N)C(=O)O; experiment: cells, lysate or membranes; assay type: cell-based, Toxoplasma gondii; details: same binding site as Lys
# [5] = substrate: NCCCC[C@H](N)C(=O)O; experiment: cells, lysate or membranes; assay type: cell-based, Toxoplasma gondii; details: same binding site as Arg; competitive with Arg
molecule,measurement,setting,value
"CC(C)C[C@H](N)C(=O)O [Leu, leucine]",radiolabelled uptake in Xenopus oocytes; inhibition of Arg uptake at 10 mM; tran,TgApiAT6-1 [1],TgApiAT6-1 also mediated uptake of Arg and some neutral amino acids including Met and Leu
"CSCC[C@H](N)C(=O)O [Met, methionine]",radiolabelled uptake in Xenopus oocytes; inhibition of Arg uptake at 10 mM; tran,TgApiAT6-1 [1],TgApiAT6-1 also mediated uptake of Arg and some neutral amino acids including Met and Leu
"N[C@@H](Cc1ccccc1)C(=O)O [Phe, phenylalanine]",inhibition of [14C]Arg uptake at 10 mM and trans-stimulation of Arg uptake in Xe,TgApiAT6-1 [2],"numerous neutral amino acids including Met, Leu, Phe and His partially inhibited Arg uptake"
"N[C@@H](Cc1c[nH]cn1)C(=O)O [His, histidine]",inhibition of [14C]Arg uptake at 10 mM and trans-stimulation of Arg efflux in Xe,TgApiAT6-1 [3],"numerous neutral amino acids including Met, Leu, Phe and His partially inhibited Arg uptake"
"TgApiAT6-1 (Toxoplasma gondii ME49) (protein, HA-tagged TgApiAT6-1 open reading frame expressed in Xenopus laevis oocytes) MASSDSNAKLASQRLHSCAGGEESSGQCLEKQGAGARLRGWLAQLLPRADLPGARQKTPFNLNRYVLLLLYSIVVFTTGAVFYGWTALSAMIFKNDGFAYLCPKDASGVYVPDLRATQGKLYICDEQDAAVQKLYTMTFAVACLMSAGAGTLLDWLGPLWTELLGQLLNLVGWLFLAFSTVDRPLYYPALVFIGLGADASMLPTLCIRHLFPGSTGLIITILGSAASASFGIPLVLNTIVENHGVSVRDVSIGYCFFGPVLGVLVALLFMPRRGFALDDAGTIFREPDSGEGEGEAGPYALENGAQGGESQNAQETRRRKLLDPIVSSSFWTQFFSIRYFLIVLYFVVVSWATSYYQQAARRMFSEDVVSVIEVLLPLSFIPCILLGKVADVVGIIRVLFVMNTSGLLTYVFSFFKTDATGYLSACCFMVYMSLLTSQVYVYVEGTFSPNHFGKLIGISNLTGGLLSLVSNPLYENITVNRDNGDPLCIQIAMTALLCVQYVWIFILGFLKSGNSPLLNMDVKAKDDADAEKRADNAPGAEERTSAPSGSSSELAAVTVTPPQDSA",K0.5,[4],748 µM
same,kcat,[4],0.28 ± 0.1 s⁻¹
same,kcat/Km,[4],379 M⁻¹ s⁻¹
same,K0.5,[5],22.8 µM
same,kcat,[5],0.042 ± 0.004 s⁻¹
same,kcat/Km,[5],1840 M⁻¹ s⁻¹
